Laboratory results as given in patent publication US20230242646A1 (JJP BIOLOGICS SP Z O O, published 2023).

Assays:
[1] = target: T1, membrane-bound full-length human CD89 on HEK293F cells (human, UniProt P24071 22-287); test: FACS HEK293F-huCD89
T1 construct: 2 or transient transfectants; also called membrane human CD89; human FcaRI
Experimental: After extensive washing in PBS/BSA/NaN₃, cells were subsequently incubated with 1:200 diluted PE-conjugated goat anti-human IgG Fcy-specific antibodies (Jackson ImmunoResearch) for 30 minutes at 4° C. After extensive washing in PBS/BSA/NaN₃, cells were fixed in 2% formaldehyde in PBS/BSA/NaN₃ for 30 minutes at 4° C.

[2] = target: T2, chimeric human/cynomolgus monkey CD89-II on HEK293F cells (human/cynomolgus chimera, UniProt P24071 22-287); test: FACS, 10 µg/mL, transiently transfected HEK293F
T2 construct: also called dIle47 - Ile71 human EC1-CD89; II (47-71)
T2 chain: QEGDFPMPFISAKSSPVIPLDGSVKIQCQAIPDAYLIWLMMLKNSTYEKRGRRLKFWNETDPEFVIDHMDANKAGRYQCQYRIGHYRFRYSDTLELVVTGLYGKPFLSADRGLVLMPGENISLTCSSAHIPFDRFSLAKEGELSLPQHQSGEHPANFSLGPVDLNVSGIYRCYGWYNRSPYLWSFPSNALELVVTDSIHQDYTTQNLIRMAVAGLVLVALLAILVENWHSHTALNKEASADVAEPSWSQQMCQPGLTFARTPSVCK
Experimental: (§1) To this end, transient transfected HEK293F cells were put at 10 × 10⁶ cells/mL in ice-chilled phosphate-buffered saline containing 0.1% BSA (Sigma)/0.05% NaN₃ (PBS/BSA/NaN₃) supplemented with 50 µg/mL human IgGs (blocking FcY receptors; Sigma) for 10 minutes at 4° C. Then, 10 µL/tube (i.e., 0.1 × 10⁶ cells) of these cells were incubated with or without 100 µL purified mouse anti-human CD89 antibody at 10 µg/mL (in PBS/BSA/NaN₃) for 30 minutes at 4° C. […] After extensive washing in PBS/BSA/NaN₃, cells were subsequently incubated with 1:200 diluted PE-conjugated goat anti-mouse IgG Fcy-specific antibodies (Jackson ImmunoResearch) for 30 minutes at 4° C. After extensive washing in PBS/BSA/NaN₃, cells were fixed in 2% formaldehyde in PBS/BSA/NaN₃ for 30 minutes at 4° C.

[3] = target: T3, chimeric human/cynomolgus monkey CD89-I on HEK293F cells (human/cynomolgus chimera, UniProt P24071 22-287); test: FACS, 10 µg/mL, transiently transfected HEK293F
T3 construct: also called dGln22 - Lys46 human EC1-CD89; I (22-46)
T3 chain: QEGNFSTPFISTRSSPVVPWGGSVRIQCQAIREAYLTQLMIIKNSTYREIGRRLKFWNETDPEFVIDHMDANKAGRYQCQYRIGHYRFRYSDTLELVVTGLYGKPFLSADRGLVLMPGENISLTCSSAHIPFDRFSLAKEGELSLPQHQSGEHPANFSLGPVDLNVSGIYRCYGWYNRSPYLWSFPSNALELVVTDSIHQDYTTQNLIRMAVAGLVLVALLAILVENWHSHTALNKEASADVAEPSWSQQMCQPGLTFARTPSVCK
Experimental: as §1

[4] = target: T4, chimeric human/cynomolgus monkey CD89-IV on HEK293F cells (human/cynomolgus chimera, UniProt P24071 22-287); test: FACS, 10 µg/mL, transiently transfected HEK293F
T4 construct: also called dArg97 - Gly121 human EC1-CD89
T4 chain: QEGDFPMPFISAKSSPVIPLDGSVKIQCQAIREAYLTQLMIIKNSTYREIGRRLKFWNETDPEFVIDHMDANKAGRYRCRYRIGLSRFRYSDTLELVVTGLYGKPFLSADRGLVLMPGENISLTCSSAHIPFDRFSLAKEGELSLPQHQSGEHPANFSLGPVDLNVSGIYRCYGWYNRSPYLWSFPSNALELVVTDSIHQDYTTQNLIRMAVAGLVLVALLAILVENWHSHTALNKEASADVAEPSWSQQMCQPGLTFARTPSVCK
Experimental: as §1

[5] = target: T1, membrane-bound full-length human CD89 …; test: FACS HEK293F-huCD89, 10 ug/mL; competitor PE-A3
Experimental: (§2) Then, 10 µL/tube (i.e., 0.1 × 10⁶ cells) of these cells were incubated with or without 100 µL purified mouse anti-human CD89 antibody at 10 µg/mL (in PBS/BSA/NaN₃) for 30 minutes at 4° C. […] After extensive washing in PBS/BSA/NaN₃, cells were fixed in 2% formaldehyde in PBS/BSA/NaN₃ for 30 minutes at 4° C.

[6] = target: T5, membrane full-length bovine Fcgamma2R on HEK293F cells (bovine); test: FACS, transiently transfected HEK293F
T5 construct: also called bovine Fcy2R
T5 chain: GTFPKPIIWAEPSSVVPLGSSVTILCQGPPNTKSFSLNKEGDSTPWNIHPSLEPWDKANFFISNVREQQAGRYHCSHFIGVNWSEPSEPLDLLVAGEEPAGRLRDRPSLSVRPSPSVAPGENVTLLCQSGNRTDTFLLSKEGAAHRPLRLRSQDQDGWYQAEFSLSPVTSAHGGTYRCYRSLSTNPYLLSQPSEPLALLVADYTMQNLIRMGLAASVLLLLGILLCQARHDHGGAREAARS
Experimental: To this end, transient transfected HEK293F cells were put at 10 × 10⁶ cells/mL in ice-chilled phosphate-buffered saline containing 0.1% BSA (Sigma)/0.05% NaN₃ (PBS/BSA/NaN₃) supplemented with 50 µg/mL human IgGs (blocking Fcy receptors; Sigma) for 10 minutes at 4° C. Then, 10 µL/tube (i.e., 0.1 × 10⁶ cells) of these cells were incubated with or without 100 µL purified mouse anti-human CD89 antibody at 10 µg/mL (in PBS/BSA/NaN₃) for 30 minutes at 4° C. […] After extensive washing in PBS/BSA/NaN₃, cells were subsequently incubated with 1:200 diluted PE-conjugated goat anti-mouse IgG Fcy-specific antibodies (Jackson ImmunoResearch) for 30 minutes at 4° C. After extensive washing in PBS/BSA/NaN₃, cells were fixed in 2% formaldehyde in PBS/BSA/NaN₃ for 30 minutes at 4° C.

[7] = target: T6, recombinant C-terminal polyhistidine-tagged human (extracellular) CD89 (Sino Biological) (human, UniProt P24071 22-227); test: BLI (Octet RED96), biotinylated Ab on streptavidin tips, rhuCD89 analyte, 1:1 model
T6 construct: extracellular domain; bought protein; also called rhuCD89; soluble monomeric rhuCD89
Experimental: Equilibrium dissociation constants (KD) were determined using a 1:1 Langmuir binding model in Octet® RED96 software (ForteBio).

[8] = target: T7, membrane full-length cynomolgus monkey CD89 on HEK293F cells (cynomolgus monkey); test: FACS, transiently transfected HEK293F
T7 construct: also called cynoCD89; cynomolgus EC1-CD89
T7 chain: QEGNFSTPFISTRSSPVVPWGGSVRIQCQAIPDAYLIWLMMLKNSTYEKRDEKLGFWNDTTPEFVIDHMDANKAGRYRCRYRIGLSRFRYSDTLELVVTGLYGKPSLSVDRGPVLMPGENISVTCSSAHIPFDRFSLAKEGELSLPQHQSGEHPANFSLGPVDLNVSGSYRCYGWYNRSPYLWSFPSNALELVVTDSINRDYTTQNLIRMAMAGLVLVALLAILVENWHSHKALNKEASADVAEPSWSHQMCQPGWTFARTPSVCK
Experimental: To this end, transient transfected HEK293F cells were put at 10 x 10⁶ cells/mL in ice-chilled phosphate-buffered saline containing 0.1% BSA (Sigma)/0.05% NaN₃ (PBS/BSA/NaN₃) supplemented with 50 µg/mL human IgGs (blocking FcY receptors; Sigma) for 10 minutes at 4° C. Then, 10 µL/tube (i.e., 0.1 × 10⁶ cells) of these cells were incubated with or without 100 µL purified mouse anti-human CD89 antibody at 10 µg/mL (in PBS/BSA/NaN₃) for 30 minutes at 4° C. […] After extensive washing in PBS/BSA/NaN₃, cells were subsequently incubated with 1:200 diluted PE-conjugated goat anti-mouse IgG Fcy-specific antibodies (Jackson ImmunoResearch) for 30 minutes at 4° C. After extensive washing in PBS/BSA/NaN₃, cells were fixed in 2% formaldehyde in PBS/BSA/NaN₃ for 30 minutes at 4° C.

[9] = target: T1, membrane-bound full-length human CD89 …; test: FACS, antibody before secretory IgA on HEK293F-huCD89; IgA detected
Experimental: Then, 10 µL/tube (i.e., 0.1 x 10⁶ cells) of these cells were incubated with or without 50 µL titrated (in PBS/BSA/NaN₃) purified mouse anti-human CD89 antibody/tube for 30 minutes at 4° C. […] After extensive washing in PBS/BSA/NaN₃, 1:200 diluted PE-conjugated streptavidin (Jackson ImmunoResearch) was added, and incubated for 30 minutes at 4° C. After extensive washing in PBS/BSA/NaN₃, cells were fixed in 4% formaldehyde in PBS/BSA/NaN₃ for 30 minutes at 4° C.

[10] = target: T1, membrane-bound full-length human CD89 …; test: FACS HEK293F-huCD89, 10 ug/mL; competitor PE-A59
Experimental: as §2

[11] = target: T8, chimeric human/cynomolgus monkey CD89-hotspots on HEK293F cells (human/cynomolgus chimera, UniProt P24071 22-287); test: FACS, transiently transfected HEK293F
T8 construct: also called dThr58, Gln59; dArg73, Arg74, Lys76
T8 chain: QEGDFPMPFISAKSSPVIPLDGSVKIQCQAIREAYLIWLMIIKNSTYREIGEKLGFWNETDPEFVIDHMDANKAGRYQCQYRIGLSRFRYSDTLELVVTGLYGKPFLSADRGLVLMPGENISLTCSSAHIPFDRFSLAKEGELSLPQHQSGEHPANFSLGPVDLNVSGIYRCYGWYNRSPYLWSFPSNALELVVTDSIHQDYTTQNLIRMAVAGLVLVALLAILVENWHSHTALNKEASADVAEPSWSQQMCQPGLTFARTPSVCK
Experimental: as §1

EC50 [1]: 0.637 µg/mL
binding result [2]: binds
binding result [3]: binds
binding result [4]: binds
% blocking of PE-A3 binding [5]: < 25%
binding result [6]: no binding (tested: 10 µg/mL)
Kd [7]: 1.67 nM
koff [7]: 0.00111 s⁻¹
kon [7]: 687000 M⁻¹ s⁻¹
binding result [8]: no binding (tested: 10 µg/mL)
IC50 (read off the curve) [9]: ~1 µg/mL
% blocking of PE-A59 binding [10]: < 25%
binding result [11]: no binding (tested: 10 µg/mL)
B1: CD89/IgA blocking mouse anti-human CD89-specific antibody 10E7 (antibody, V domains shown)
VH: EVQLVESGGGLVQPGGSLKLSCAASGLTFSSYGMSWVRQTPDKRLELVATINGNGDITYYPDSVKGRFTISRDNAKNTLYLQMSSLKSEDTAMYYCARDYDYDYAMDYWGQGTSVTVSS
VL: DIQMTQSTSSLSASLGDSVTISCRASQDIINYLNWYQQKPDGTVKLLIYYTSRLHSGVPSRFSGSGSGTEYSLTVSNLEKEDIATYFCQQGKTLPYTFGGGTKLEIK
notes: biotinylated in the Octet assay; also called mouse 10E7
